Test [1] has as its target T1, TβR2ECD-cK5 (TβR2ECD with linker cassette fused to the cK5 C-terminal construct) (human).
T1 construct: Conditioned medium of 293 cells, expressed alone; also called TβR2-K5coil with internal cys/TEV
T1 chain: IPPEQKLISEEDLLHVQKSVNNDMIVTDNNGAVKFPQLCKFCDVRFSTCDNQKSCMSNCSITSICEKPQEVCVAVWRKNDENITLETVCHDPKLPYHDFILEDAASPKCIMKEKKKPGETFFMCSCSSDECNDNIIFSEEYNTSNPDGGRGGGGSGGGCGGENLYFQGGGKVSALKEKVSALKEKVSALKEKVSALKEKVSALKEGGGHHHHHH
In words: non-reducing SDS gel and western blot with anti-TβR2 antibody; E/K coil dimer fixed by an interchain disulfide. (Immunoblotting shows a protein as a band on a membrane.)

Test [2] concerns the target T2, TβR2cK (R2cK), receptor-coil fusion with thrombin cleavage site, expressed alone (human).
T2 construct: Conditioned medium of 293 cells; also called TβR2cKcoil
T2 chain: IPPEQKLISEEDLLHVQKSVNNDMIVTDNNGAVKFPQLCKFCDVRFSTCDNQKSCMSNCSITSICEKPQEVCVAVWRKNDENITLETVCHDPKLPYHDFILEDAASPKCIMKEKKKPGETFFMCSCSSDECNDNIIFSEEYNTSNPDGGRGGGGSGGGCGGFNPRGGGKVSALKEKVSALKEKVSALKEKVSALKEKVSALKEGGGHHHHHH
In words: non-reducing SDS gel and western blot with anti-TβRII antibody; E/K coil dimer fixed by an interchain disulfide. As to the method:
Plasmids encoding the R2cK and R2cE constructs were transfected separately or co-transfected into 293 cells. Conditioned media from these cells were then analyzed by western blot to detect R2cK and R2cE expression and tested for TGF-β3 neutralization (FIG. 6A-C). By themselves R2cE or R2cK were unable to neutralize TGF-β3. […] Based on their activities in FIG. 6A, these forms are non-productive, i.e. cannot neutralize TGF-β. Expressed together, R2cE+R2cK predominantly form dimers of about 80 Kd and only minimal amounts of the monomers are seen in the non-reducing gel (FIG. 6B, lane 3), indicating a covalent, inter-chain disulfide bridge has been established (Click, FIG. 6B). Subsequent cleavage of R2cE+R2cK with a sufficient amount of thrombin (++) generates an R2c+R2c dimer (about 60 Kd) that is held together by an inter-chain disulfide (in the non-reducing SDS gel) and that no longer contains the coils (Cleave, FIG. 6C). The resultant TGF-/3 trap generated by the clamp/click/cleave (CCC) process described above is depicted as a molecular model in FIG. 7.

Consider two molecules from patent US20130251712A1 (NATIONAL RESEARCH COUNCIL OF CANADA, published 2013).

B1: TβR2ECD-cE5 (TβR2ECD with linker cassette fused to the cE5 C-terminal construct) (receptor)
chain: IPPEQKLISEEDLLHVQKSVNNDMIVTDNNGAVKFPQLCKFCDVRFSTCDNQKSCMSNCSITSICEKPQEVCVAVWRKNDENITLETVCHDPKLPYHDFILEDAASPKCIMKEKKKPGETFFMCSCSSDECNDNIIFSEEYNTSNPDGGRGGGGSGGGCGGENLYFQGGGEVSALEKEVSALEKEVSALEKEVSALEKEVSALEKGGGHHHHHH
notes: Secreted into conditioned medium of transfected 293 cells; tested unpurified, expressed alone; also called TβR2-E5coil with internal cys/TEV
Regarding B1, in test [1], the binding result is on record as “binds”.

B2: TβR2cE (R2cE), receptor-coil fusion with thrombin cleavage site, expressed alone (receptor)
chain: IPPEQKLISEEDLLHVQKSVNNDMIVTDNNGAVKFPQLCKFCDVRFSTCDNQKSCMSNCSITSICEKPQEVCVAVWRKNDENITLETVCHDPKLPYHDFILEDAASPKCIMKEKKKPGETFFMCSCSSDECNDNIIFSEEYNTSNPDGGRGGGGSGGGCGGFNPRGGGEVSALEKEVSALEKEVSALEKEVSALEKEVSALEKGGGHHHHHH
notes: Conditioned medium of 293 cells; also called TβR2cEcoil
Take B2: the binding result in test [2] is reported as “binds”.
